# T1: PpZAT5 (Prunus persica, UniProt A0A251NAP4 1-283)
# T1 sequence: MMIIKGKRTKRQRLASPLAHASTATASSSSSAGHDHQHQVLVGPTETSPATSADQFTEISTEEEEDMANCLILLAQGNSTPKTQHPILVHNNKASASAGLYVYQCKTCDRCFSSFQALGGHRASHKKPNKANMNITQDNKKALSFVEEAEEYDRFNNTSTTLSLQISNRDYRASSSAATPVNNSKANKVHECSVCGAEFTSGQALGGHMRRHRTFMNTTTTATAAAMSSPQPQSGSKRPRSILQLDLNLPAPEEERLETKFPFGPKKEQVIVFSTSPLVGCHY
# T2: PpBBX32 (Prunus persica, UniProt A0A251PTV0 1-264)
# T2 sequence: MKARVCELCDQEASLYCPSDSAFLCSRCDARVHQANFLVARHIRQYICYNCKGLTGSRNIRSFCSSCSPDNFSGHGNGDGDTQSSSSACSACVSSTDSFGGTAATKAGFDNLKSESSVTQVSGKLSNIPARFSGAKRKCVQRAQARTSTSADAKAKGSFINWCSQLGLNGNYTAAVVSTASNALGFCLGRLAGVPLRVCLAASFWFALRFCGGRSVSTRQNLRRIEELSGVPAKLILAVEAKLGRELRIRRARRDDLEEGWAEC
# B1: proPpMYB10.1 ACT core element 7 mutant (dsDNA)
# DNA 1: TCTTAGCTAGTTACCCTAGTTATCAAG
# DNA 2: CTTGATAACTAGGGTAACTAGCTAAGA
# B2: proPpMYB10.1 ACT core element 7 (dsDNA)
# DNA 1: TCTTAGCTAACTGTTACTGTTATCAAG
# DNA 2: CTTGATAACAGTAACAGTTAGCTAAGA
# B3: proPpMYB10.1 G-box1&2 (dsDNA)
# DNA 1: CAGCTGTGATACGTGAACCACACGTGCTGACACTA
# DNA 2: TAGTGTCAGCACGTGTGGTTCACGTATCACAGCTG
# What was measured:
# [1] = biological target: T1, PpZAT5; assay: EMSA; LightShift Chemiluminescent EMSA kit (Thermo), biotin-labeled probes; buffer, salt, pH and temperature not stated; conditions: protein: recombinant; tags: N-terminal His-trigger factor (pColdTF fusion); blunt
# [2] = biological target: T1, PpZAT5; assay: EMSA; shift weakened by increasing cold probe; LightShift Chemiluminescent EMSA kit (Thermo), biotin-labeled probes; buffer, salt, pH and temperature not stated; conditions: protein: recombinant; tags: N-terminal His-trigger factor (pColdTF fusion); label: biotin; blunt
# [3] = biological target: T2, PpBBX32; assay: as above; conditions: protein: recombinant; tags: N-terminal His-trigger factor (pColdTF fusion); label: biotin; blunt
binder,measurement,setting,value
B1,binding result,[1],no binding
B2,binding result,[2],binds
B3,binding result,[3],binds
